{
  "source": "patent US20210379129A1",
  "about": "(BIOCOMO INCORPORATION, published 2021)",
  "key": {"[1]": {"biological_target": "T1, mouse 4-1BBL incorporated into the envelope of BC-PIV particles (mouse, UniProt P41274 1-309, Membrane-anchored type II protein on the BC-PIV envelope; paragraph 280 expects trimers that associate into higher multimers; one protomer is given.)", "T1 construct": "Whole membrane protein on virus particles coated on the ELISA plate; also called mouse 4-1BBL-carrying BC-PIV; BC-PIV/4-1BBL", "T1 sequence": "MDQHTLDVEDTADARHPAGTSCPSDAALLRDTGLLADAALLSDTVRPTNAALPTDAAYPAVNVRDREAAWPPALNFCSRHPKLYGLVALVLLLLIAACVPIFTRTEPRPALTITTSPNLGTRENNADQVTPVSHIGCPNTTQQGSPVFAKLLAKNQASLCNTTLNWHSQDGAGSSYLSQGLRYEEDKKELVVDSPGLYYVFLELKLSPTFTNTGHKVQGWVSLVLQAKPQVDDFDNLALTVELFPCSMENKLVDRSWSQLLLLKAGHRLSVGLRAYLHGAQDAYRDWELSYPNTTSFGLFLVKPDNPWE", "experiment": "ELISA: 1x10^6 BC-PIV particles coated per well, receptor-Fc added at 1, 10, 50, 100 ng, HRP-Protein A, absorbance at 450 nm"}, "[2]": {"biological_target": "T2, mouse OX40L incorporated into the envelope of BC-PIV particles (mouse, UniProt P43488 1-198, Membrane-anchored type II protein on the BC-PIV envelope, expected as a homotrimer; one protomer is given.)", "T2 construct": "Whole membrane protein on virus particles coated on the ELISA plate (1x10^6 particles per well); The form 'whole, on cells' is the nearest choice; the carrier is a virus envelope; also called mouse OX40L-carrying BC-PIV; BC-PIV/OX40L", "T2 sequence": "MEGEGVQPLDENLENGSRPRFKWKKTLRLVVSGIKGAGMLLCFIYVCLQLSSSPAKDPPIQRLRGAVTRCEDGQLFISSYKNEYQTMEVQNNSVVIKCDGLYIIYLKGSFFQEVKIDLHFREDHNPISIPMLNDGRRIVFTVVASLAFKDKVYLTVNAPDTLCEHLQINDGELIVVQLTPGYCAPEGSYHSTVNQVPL", "experiment": "ELISA: 1x10^6 BC-PIV particles coated per well, receptor-Fc added at 1, 10, 50, 100 ng, HRP-Protein A, absorbance at 450 nm"}, "[3]": {"biological_target": "T3, human OX40 receptor (BioLegend Inc, Cat #780804) (human, UniProt P43489 29-214)", "T3 construct": "Bought reagent; No Fc tag is stated for this one, but detection was by HRP-Protein A 'adsorbed on the human Fc region', so a human Fc tag is likely; also called human OX40 receptor protein", "T3 sequence": "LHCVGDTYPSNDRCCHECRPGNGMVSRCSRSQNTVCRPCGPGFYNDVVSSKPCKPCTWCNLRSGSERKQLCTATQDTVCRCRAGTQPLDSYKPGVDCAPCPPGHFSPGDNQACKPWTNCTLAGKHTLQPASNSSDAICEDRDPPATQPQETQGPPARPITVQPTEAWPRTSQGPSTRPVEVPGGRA", "experiment": "ELISA: 1x10^6 BC-PIV particles coated per well, receptor added at 1, 10, 50, 100 ng, HRP-Protein A, absorbance at 450 nm"}},
  "data": [
    {"binder": "mouse 4-1BB receptor (C-terminal human IgG Fc Tag; BioLegend Inc, Cat #756704) (Fc fusion, Bought reagent; also called mouse 4-1BB receptor protein; not shown: C-terminal human IgG Fc tag) VQNSCDNCQPGTFCRKYNPVCKSCPPSTFSSIGGQPNCNICRVCAGYFRFKKFCSSTHNAECECIEGFHCLGPQCTRCEKDCRPGQELTKQGCKTCSLGTFNDQNGTGVCRPWTNCSLDGRSVLKTGTTEKDVVCGPPVVSFSPSTTISVTPEGGPGGHSLQVL", "values": [
      {"measurement": "binding result", "setting": "[1]", "result": "binds"}
    ]},
    {"binder": "trimeric mouse OX40 receptor (C-terminal human IgG Fc Tag; BioLegend Inc, Cat #78904) (Fc fusion, Bought reagent, called 'trimeric'; not shown: C-terminal human IgG Fc tag) VTARRLNCVKHTYPSGHKCCRECQPGHGMVSRCDHTRDTLCHPCETGFYNEAVNYDTCKQCTQCNHRSGSELKQNCTPTQDTVCRCRPGTQPRQDSGYKLGVDCVPCPPGHFSPGNNQACKPWTNCTLSGKQTRHPASDSLDAVCEDRSLLATLLWETQRPTFRPTTVQSTTVWPRTSELPSPPTLVTPEGP", "values": [
      {"measurement": "binding result", "setting": "[2]", "result": "binds"}
    ]},
    {"binder": "human OX40L incorporated into the envelope of BC-PIV particles (ligand, Membrane-anchored type II protein on the BC-PIV envelope, expected as a homotrimer; one protomer is given., Whole membrane protein on virus particles coated on the ELISA plate; also called human OX40L-carrying BC-PIV) MERVQPLEENVGNAARPRFERNKLLLVASVIQGLGLLLCFTYICLHFSALQVSHRYPRIQSIKVQFTEYKKEKGFILTSQKEDEIMKVQNNSVIINCDGFYLISLKGYFSQEVNISLHYQKDEEPLFQLKKVRSVNSLMVASLTYKDKVYLNVTTDNTSLDDFHVNGGELILIHQNPGEFCVL", "values": [
      {"measurement": "binding result", "setting": "[3]", "result": "binds"}
    ]}
  ]
}
